We go through two molecules from US20230151111A1 (AKESO BIOPHARMA, published 2023).

Assay [1] concerns the target T1, PD-1-mFc (human, UniProt Q15116 25-170, limits assumed).
T1 construct: also called human PD-1-mFc
As to the kind of experiment: BLI (Fortebio), antibody on AHC sensor, PD-1-mFc 0.6-50 nM, 37 C. How it is done: The sample dilution buffer was PBST, 0.1% BSA, pH 7.4. The antibody was immobilized on an AHC sensor at a concentration of 5 μg/mL with an immobilization height of about 0.4 nm. The sensor was equilibrated in a buffer for 60 s, and the binding of the immobilized antibody on the sensor to the antigen PD-1-mFc at concentrations of 0.6-50 nM (three-fold dilution) was determined in 120 s. The protein was dissociated in the buffer for 180 s. The detection temperature was 37° C., the detection frequency was 0.3 Hz, and the sample plate shaking rate was 1000 rpm. The data were analyzed by 1:1 model fitting to obtain affinity constants.
(Biolayer interferometry detects binding as a change in optical thickness at a sensor tip.)

The target of assay [2] is T2, PD-1 on 293T-PD1 cell surface (human, UniProt Q15116 25-288).
T2 construct: whole, on cells
T2 sequence (Q15116 25-288): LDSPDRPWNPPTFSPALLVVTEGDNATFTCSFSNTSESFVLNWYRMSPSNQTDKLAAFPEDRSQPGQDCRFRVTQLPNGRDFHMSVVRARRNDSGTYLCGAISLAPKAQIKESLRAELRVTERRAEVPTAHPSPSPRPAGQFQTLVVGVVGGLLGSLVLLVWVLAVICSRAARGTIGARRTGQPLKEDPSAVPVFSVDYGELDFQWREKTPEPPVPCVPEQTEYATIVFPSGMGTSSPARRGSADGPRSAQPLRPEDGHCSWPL
As to the kind of experiment: flow cytometry, 293T-PD1 cells; antibody 33.33 nM. As to the method:
(§1) 500 μL of PBSA was added, and the mixture was centrifuged at 5600 rpm for 5 min to remove the supernatant. […] The system was mixed gently and uniformly, and then was incubated on ice for 1 h. Then 500 μL of PBSA was added, and the mixture was centrifuged at 5600 rpm for 5 min to remove the supernatant. […] 500 μL of PBSA was added, and the mixture was centrifuged at 5600 rpm for 5 min to remove the supernatant. At last, 200 μL of PBSA was added to resuspend cell precipitates, and the mixture was transferred to a flow tube for FACSCalibur detection.
For orientation: In flow cytometry, cells or beads pass a laser one at a time.

The target in assay [3] is T2, PD-1 on 293T-PD1 cell surface. In words: flow cytometry, 293T-PD1 cells; antibody 0.14 nM. As to the method: as §1
The target is the same in assay [4]. As to the kind of experiment: flow cytometry, 293T-PD1 cells; antibody 0.41 nM. How it is done: as §1
Assay [5] shares this target. In words: flow cytometry, 293T-PD1 cells; antibody 100.00 nM. As to the method:
as §1

The target is the same in assay [6]. As to the kind of experiment: flow cytometry, 293T-PD1 cells; antibody 3.70 nM. As to the method: as §1
The target in assay [7] is T1, PD-1-mFc. In words: ELISA, PD-1-mFc coated. As to the method:
A microplate was coated with PD-1-mFc at 0.5 μg/mL and incubated at 4° C. overnight. Then the microplate coated with antigens was washed once with PBST, and then blocked with a PBS solution containing 1% BSA as blocking solution at 37° C. for 2 h. After blocking, the microplate was washed 3 times with PBST. The microplate containing the test antibodies was incubated at 37° C. for 30 min, and then washed 3 times with PBST. […] After incubation, the plate was washed 4 times with PBST, TMB (Neogen, 308177) was added in the dark for chromogenesis for 5 min, and then a stop solution was added to terminate chromogenic reaction. The microplate was put into a microplate reader immediately, and the OD value of each well in the microplate was read at 450 nm. The data were analyzed and processed by SoftMax Pro 6.2.1,
(An ELISA detects its analyte on a solid surface through an enzyme-linked reagent.)

For assay [8], the target named is T2, PD-1 on 293T-PD1 cell surface. As to the kind of experiment: flow cytometry, 293T-PD1 cells; antibody 1.23 nM. How it is done:
as §1

For assay [9] the target is unchanged. In words: flow cytometry, 293T-PD1 cells. As to the method:
as §1

The target is the same in assay [10]. As to the kind of experiment: flow cytometry, 293T-PD1 cells; antibody 0.05 nM. How it is done:
as §1

The next assay concerns the target T3, human NT5E-Biotin (human, UniProt P21589 27-552, limits assumed, biotin label, site not stated).
T3 construct: Captured on streptavidin-coated plates; also called human NTSE-Biotin
T3 sequence (looked up): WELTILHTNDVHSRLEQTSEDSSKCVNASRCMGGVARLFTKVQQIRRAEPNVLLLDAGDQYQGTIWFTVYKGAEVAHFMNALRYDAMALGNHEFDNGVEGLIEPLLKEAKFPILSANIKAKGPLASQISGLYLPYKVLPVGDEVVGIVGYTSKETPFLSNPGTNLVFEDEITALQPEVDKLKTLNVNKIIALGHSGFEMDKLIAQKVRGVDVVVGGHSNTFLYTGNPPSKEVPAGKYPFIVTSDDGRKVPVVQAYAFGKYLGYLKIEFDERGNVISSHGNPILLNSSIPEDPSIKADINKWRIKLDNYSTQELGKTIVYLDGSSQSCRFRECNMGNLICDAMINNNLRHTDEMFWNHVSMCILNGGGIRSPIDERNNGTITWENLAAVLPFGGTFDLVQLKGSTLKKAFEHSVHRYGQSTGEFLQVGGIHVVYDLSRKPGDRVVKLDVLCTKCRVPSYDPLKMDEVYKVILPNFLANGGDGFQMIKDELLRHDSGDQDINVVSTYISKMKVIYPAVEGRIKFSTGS
As to the kind of experiment: ELISA, NT5E-biotin on streptavidin. As to the method:
A microplate was coated with streptavidin at 2 μg/mL and then incubated at 4° C. overnight. After incubation, the microplate coated with streptavidin was washed once with PBST, and blocked with a PBS solution containing 1% BSA as a microplate blocking solution at 37° C. for 2 h. After blocking, the microplate was washed 3 times with PBST. Then, 0.5 μg/mL antigen human NTSE-Biotin was added and incubated at 37° C. for 30 min. Then, the plate was washed 3 times with PBST. The antibodies serially diluted with PBST solution (the dilution gradients for the antibody are shown in Table 3) were added to wells of the microplate. The microplate containing the test antibodies was incubated at 37° C. for 30 min, and then washed 3 times with PBST. […] After incubation, the plate was washed 4 times with PBST, TMB (Neogen, 308177) was added in the dark for chromogenesis for 5 min, and then a stop solution was added to terminate chromogenic reaction. The microplate was put into a microplate reader immediately, and the OD value of each well in the microplate was read at 450 nm. The data were analyzed and processed by SoftMax Pro 6.2.1.

In assay [11] the target is T4, human PD-1-mFc-biotin (human, UniProt Q15116 25-170, limits assumed, biotin label, site not stated). As to the kind of experiment: competitive ELISA, blocking of PD-1-mFc-biotin binding to coated PD-L1-mFc. As to the method:
(§2) After incubation, the microplate was blocked with a PBS solution containing 1% BSA at 37° C. for 2 h. After blocking, the plate was washed three times and dried. The antibody was serially diluted to 7 concentrations in a gradient ratio of 1:3 on a dilution plate with 10 μg/mL as the starting concentration, and a blank control was set. […] Then the mixture after reaction was added to the coated microplate, and the microplate was incubated for at 37° C. for 30 min. After incubation, the plate was washed three times with PBST and dried. SA-HRP (KPL, 14-30-00) working solution was added, and the plate was incubated at 37° C. for 30 min. After incubation, the plate was washed four times and patted dry. Then TMB (Neogen, 308177) was added in the dark for chromogenesis for 5 min, and a stop solution was added to terminate chromogenic reaction. Then the microplate was put into a microplate reader immediately, and the OD value of each well in the microplate was read at 450 nm. The data were analyzed and processed by SoftMax Pro 6.2.1.

Assay [12] has as its target T4, human PD-1-mFc-biotin. In words: competitive ELISA, competitor coated PD-L1-mFc; antibody 5 ug/mL diluted 1:3. How it is done: as §2
Assay [13] has as its target T2, PD-1 on 293T-PD1 cell surface. As to the kind of experiment: flow cytometry, 293T-PD1 cells; antibody 11.11 nM. How it is done:
as §1

T1 sequence (Q15116 other isoform, or with tags, fused parts or gaps limits assumed): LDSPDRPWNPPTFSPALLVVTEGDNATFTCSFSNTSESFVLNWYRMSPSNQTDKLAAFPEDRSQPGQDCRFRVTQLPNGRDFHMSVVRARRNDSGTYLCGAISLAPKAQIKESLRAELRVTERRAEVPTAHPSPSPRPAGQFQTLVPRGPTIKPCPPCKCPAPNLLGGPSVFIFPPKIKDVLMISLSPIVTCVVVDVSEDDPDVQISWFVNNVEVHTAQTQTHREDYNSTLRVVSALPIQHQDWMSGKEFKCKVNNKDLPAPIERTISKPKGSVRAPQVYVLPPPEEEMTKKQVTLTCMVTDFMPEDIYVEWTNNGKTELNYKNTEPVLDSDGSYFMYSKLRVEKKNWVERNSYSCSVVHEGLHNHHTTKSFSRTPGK
T4 sequence (Q15116 other isoform, or with tags, fused parts or gaps limits assumed): as above

B1: 14C12H1L1 (antibody, human IgG1, kappa)
heavy: not shown
light: DIQMTQSPSSMSASVGDRVTFTCRASQDINTYLSWFQQKPGKSPKTLIYRANRLVSGVPSRFSGSGSGQDYTLTISSLQPEDMATYYCLQYDEFPLTFGAGTKLELKRTVAAPSVFIFPPSDEQLKSGTASVVCLLNNFYPREAKVQWKVDNALQSGNSQESVTEQDSKDSTYSLSSTLTLSKADYEKHKVYACEVTHQGLSSPVTKSFNRGEC
notes: Humanized anti-PD-1 IgG1/kappa
For the molecule B1, the dissociation constant (Kd) in the assay with PD-1-mFc [1] turned out to be 0.164 nM. The FACS signal in assay [2] came out at 1170; in assay [3], 57.7; in assay [4], 129; in assay [5], 1500; in assay [6], 975; in assay [8], 438. Further, the FACS signal in assay [10] turned out to be 35.7. The EC50 in the assay with PD-1-mFc [7] stood at 0.033 nM; in assay [9], 2.11 nM.

B2: P1D7V02R (bispecific antibody, human IgG1, kappa)
heavy: not shown
light: DIQMTQSPSSMSASVGDRVTFTCRASQDINTYLSWFQQKPGKSPKTLIYRANRLVSGVPSRFSGSGSGQDYTLTISSLQPEDMATYYCLQYDEFPLTFGAGTKLELKRTVAAPSVFIFPPSDEQLKSGTASVVCLLNNFYPREAKVQWKVDNALQSGNSQESVTEQDSKDSTYSLSSTLTLSKADYEKHKVYACEVTHQGLSSPVTKSFNRGEC
notes: Morrison form IgG-scFv
As for B2, the FACS signal in assay [2] is 405; in assay [3] it was 43; in [4], 108; in assay [5], 301; in assay [6], 404; in [8], 218. Moreover, the FACS signal in assay [13] is 426; in assay [10], 23.4. The EC50 is 0.23 nM with human NT5E-Biotin, 1.33 nM with human PD-1-mFc-biotin [11], 0.078 nM in the assay with PD-1-mFc [7] and 1.07 nM in assay [9]. This molecule showed an OD450 with human PD-1-mFc-biotin [12] of 0.051 OD.

Usually Kd stands for the constant that tells how readily two partners part at equilibrium. Lower therefore signals higher affinity. The term EC50 denotes the concentration that produces a half-maximal response. A high value points to a need for much substance.
